A short description of the data set: Comparative potency (USP corticotropin units) to assess formulation shelf stability. Type of data set: physicochemical. Also on record: key to Potency: “Failed” refers to the potency after the testing being outside of the USP Corticotropin Units 80-125% range required by the U.S. Pharmacopeia.; “Passed” refers to the potency after the testing being within the 80-125% range required by the U.S. Pharmacopeia. On the procedure: The term “potency” is defined in accordance with the U.S. Pharmacopeia (USP) and refers to the quantity of an active pharmaceutical component in the composition. In accordance with the requirements of the USP, the potency that is required of the corticotropin compositions described below is not less than 80.0 percent and not more than 125.0 percent of the potency stated on the label in USP corticotropin units.
Several compositions were prepared according to the methods illustrated in Examples 1-3. Table 1 provides a comparison of their respective potencies for showing shelf stability. The terms “recombinant porcine” and “recombinant human” refer to synthetic ACTH having the same amino acid sequence as the naturally occurring polypeptide derived from pigs and humans, respectively. […] Unexpectedly, it was observed that addition of L-Methionine in combination with Mannitol improved the shelf stability of Corticotropin Active Pharmaceutical Ingredient. FIGS. 1-4 show potencies of various exemplary compositions from Day 0 to Day 365.

Consider “SYSMEHFRWGKPVGKKRRPVKVYPNGAEDELAEAFPLEF (Sythetic construct) [Synthetic porcine]”, for which the Potency entry is listed as “Failed^1 after” (Cysteine, 1 mg/mL, Mannitol None, pH 4.5-6.5, after 30 days); “Failed after” (Cysteine, 2 mg/mL, Mannitol 50 mg/mL, pH 4.0-6.0, after 10 days, both accelerated (room temperature) and refrigerated conditions); “Failed after” (Cysteine, 2 mg/mL, Mannitol 50 mg/mL, pH 4.5-6.6, after 30 days); “Failed after” (Methionine, 2 mg/mL, Mannitol 50 mg/mL, pH 4.0-6.0, after 10 days, both accelerated (room temperature) and refrigerated conditions); “Passed, (“Passed” refers to the potency after the testing being within the 80-125% range required by the U.S. Pharmacopeia.)” (Methionine, 3 mg/mL + POLOXAMER 188, 3 mg/mL, Mannitol 50 mg/mL, pH 5.0-6.5, stable after 360 days); “Passed, (“Passed” refers to the potency after the testing being within the 80-125% range required by the U.S. Pharmacopeia.)” (Methionine, 3 mg/mL, Mannitol 50 mg/mL, pH 4.0-6.0, stable after 365 days).

Turning to “SYSMEHFRWGKPVGKKRRPVKVYPNGAEDESAEAFPLEF [Recombinant human]”, the Potency entry by setting is: (Cysteine, 2 mg/mL, Mannitol 50 mg/mL, pH 4.5-6.5, after 60 days) “Failed after”; (Methionine, 2 mg/mL, Mannitol 50 mg/mL, pH 4.5-6.5, stable after 180 days) “Passed^4, (“Passed” refers to the potency after the testing being within the 80-125% range required by the U.S. Pharmacopeia.)”. Also, the “label amount remaining intact” value (Cysteine, 2 mg/mL, Mannitol 50 mg/mL, pH 4.5-6.5, day 90) is “^3Followed by even more substantial failure by day 90 (when only about 16.9% of the label amount remaining intact)”.
